Usually Tm stands for the temperature at the midpoint of the melting transition. The term Kd denotes the constant that tells how readily two partners part at equilibrium. Low readings indicate tighter binding, high ones weaker binding.

In series [1] the target is T1, human IL-6 receptor (hIL-6R) (Homo sapiens, UniProt P08887).
T1 sequence (P08887 20-357): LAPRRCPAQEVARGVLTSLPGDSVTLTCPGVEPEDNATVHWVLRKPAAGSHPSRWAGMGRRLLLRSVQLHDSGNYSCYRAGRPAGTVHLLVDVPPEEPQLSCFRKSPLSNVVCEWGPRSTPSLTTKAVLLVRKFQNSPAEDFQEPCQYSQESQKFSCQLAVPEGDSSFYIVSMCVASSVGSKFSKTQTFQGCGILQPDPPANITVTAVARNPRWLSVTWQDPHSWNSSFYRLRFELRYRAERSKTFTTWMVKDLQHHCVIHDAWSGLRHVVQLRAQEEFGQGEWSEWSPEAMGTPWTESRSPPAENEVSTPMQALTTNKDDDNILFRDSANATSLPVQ
Put plainly: SPR dissociation of antibody from immobilized hIL-6R with or without kynurenine. Type of series: binding. Conditions: bound in 100 μmol/L kynurenine, then buffer without kynurenine. On the procedure: The running buffers used were 20 mmol/L ACES, 150 mmol/L NaCl, 0.05% (w/v) Tween 20, pH 7.4, and 20 mmol/L ACES, 150 mmol/L NaCl, 0.05% (w/v) Tween 20, pH 7.4, 100 μmol/L kynurenine. The measurements were performed at 25° C. As an analyte, 5 μg/mL 6RNMSC1-2_F02 diluted with 20 mmol/L ACES, 150 mmol/L NaCl, 0.05% (w/v) Tween 20, pH 7.4, containing 100 μmol/L kynurenine was allowed to interact for 180 seconds with hIL-6R immobilized onto Sensor chip CM5 by amine coupling. Then, the mode of the dissociation of hIL-6R was observed under each running buffer condition. […] Specifically, the regulation by kynurenine on binding of the antibody to hIL-6R was confirmed to be reversible.

Series [2] in a line: Tm measurement by DSC. In general terms: DSC measures the heat that a sample takes up or gives off during a temperature scan.
Description: Measurement by DSC was carried out by a method known to those skilled in the art.
DSC measurement was carried out by a method known to those skilled in the art.
Series [3] concerns the target T1, human IL-6 receptor (hIL-6R). Nature of the series: SPR effect of kynurenine concentration on binding to immobilized hIL-6R. To be noted: 1 μg/mL antibody, 180 seconds. The procedure: Next, the effect of kynurenine concentration on antigen-antibody reaction between 6RNMSC1-2_F02 and hIL-6R was assessed using Biacore T200 (GE Healthcare). The running buffer used was 20 mmol/L ACES, 150 mmol/L NaCl, 0.05% (w/v) Tween 20, pH 7.4. Antigen-antibody reaction between 6RNMSC1-2_F02 and human IL-6R was assayed at 25° C. hIL-6R was immobilized onto Sensor chip CM5 by amine coupling. As an analyte, 1 μg/mL 6RNMSC1-2_F02 diluted with 20 mmol/L ACES, 150 mmol/L NaCl, 0.05% (w/v) Tween 20, pH 7.4, containing kynurenine adjusted to various concentrations were allowed to interact for 180 seconds and changes in the amount of binding were observed.

Series [4] can be described thus: SPR (Biacore T200) binding of 6RNMSC1-2_F02 and variants to kynurenine. The procedure:
An appropriate amount of protein A (Invitrogen) was immobilized onto Sensor chip CM4 (GE Healthcare) by the amine coupling method. The antibody of interest was captured thereon, and the antigen kynurenine and derivatives thereof were allowed to interact. The running buffer used was 50 mmol/L Tris-HCl, 150 mmol/L NaCl, 0.02% (w/v) Tween 20, 5% DMSO, pH 7.6. All measurements were carried out at 15° C. The antigens were diluted with the running buffer.
Then, the running buffer was run at a flow rate of 30 μL/min for 60 seconds to observe the dissociation of antigens from the antibody. Kinetic parameters, the association rate constant ka (1/Ms) and the dissociation rate constant kd (l/s), were calculated based on the sensorgrams obtained by the measurements. The dissociation constant KD (M) was calculated from these constants. Each parameter was calculated using Biacore T200 Evaluation Software (GE Healthcare).
(§1) Meanwhile, the type of sensor chip immobilized with Protein A was changed to Sensor chip Series S CM3 (GE Healthcare) to measure some of the variants. When kynurenine dissociation was too fast to determine the dissociation rate constant, a dissociation constant KD (M) was calculated by analysis of equilibrium values based on the degree of binding response during the interaction with each antigen (association phase). In this case also, Biacore T200 Evaluation Software (GE Healthcare) was used to calculate the parameters.
as §1
When kynurenine dissociation was too fast to determine the dissociation rate constant, the dissociation constant KD (M) was calculated by analysis of equilibrium values based on the degree of binding response when it is interacted with each antigen (association phase). Also in this case, the Biacore T200 Evaluation Software (GE Healthcare) was used to calculate parameters. […] Each variant and its parental antibody F02h011/F021003 were compared in terms of the KD value for kynurenine.
When kynurenine dissociation was too fast to determine the dissociation rate constant, the dissociation constant KD (M) was calculated by analyzing equilibrium values based on the degree of binding response when it is interacted with each antigen (association phase). Also in this case, the Biacore T200 Evaluation Software (GE Healthcare) was used to calculate parameters. […] Each variant and its parental sequence F02h011/F021003 were compared in terms of the KD value for kynurenine.
A general note: SPR reads the build-up and loss of mass on a sensor chip optically.

For series [5], the target named is T2, hIL-6R (Homo sapiens, UniProt P08887).
T2 sequence (P08887 20-357 limits assumed): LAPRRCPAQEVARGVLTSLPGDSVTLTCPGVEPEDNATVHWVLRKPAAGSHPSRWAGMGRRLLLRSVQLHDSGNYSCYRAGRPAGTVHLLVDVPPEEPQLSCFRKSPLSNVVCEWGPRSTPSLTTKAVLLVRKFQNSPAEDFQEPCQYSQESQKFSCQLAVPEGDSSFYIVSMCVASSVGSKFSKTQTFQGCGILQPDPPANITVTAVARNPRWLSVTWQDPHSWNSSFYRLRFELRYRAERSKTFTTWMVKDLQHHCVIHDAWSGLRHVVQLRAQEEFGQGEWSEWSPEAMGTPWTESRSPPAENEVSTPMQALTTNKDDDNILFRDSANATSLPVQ
Put plainly: IgG ELISA for hIL-6R binding under conditions of Table 38. Conditions: IgG 2.5 μg/mL. On the procedure:
The selected six types of antibodies and the 6RNMSC1-2_F02 antibody were subjected to ELISA under the conditions indicated in Table 38.
First, a StreptaWell 96 microtiter plate (Roche) was coated with 100 μL of TBS containing biotin-labeled hIL-6R at room temperature for one or more hours. After removing biotin-labeled hIL-6R that are not bound to the plate by washing each well of the plate with TBST, the wells were blocked with 250 μL of Blocking Buffer (2% skim milk/TBS) for one or more hours. Blocking Buffer was removed from each well. 100 μL each of the purified IgGs prepared to 2.5 μg/mL using TBS under the conditions described in Table 38 were added to the wells, and the plate was allowed to stand at room temperature for one hour to allow each IgG to bind to biotin-labeled hIL-6R in each well. TBST was prepared to make the final concentrations shown in Table 38, and each well was washed with the prepared TBST. HRP-conjugated anti-human IgG antibody (BIOSOURCE) diluted with TBS containing the same small molecules was added to each well. The plate was incubated for one hour. After washing with TBST prepared to the final concentrations shown in Table 38, the chromogenic reaction of the solution in each well added with TMB single solution (ZYMED) was terminated by adding sulfuric acid. Then, the color development was measured by absorbance at 450 nm.
(In general: In an ELISA, binding on a coated surface is turned into a signal by an enzyme label.)

B1: 6RNMSC1-2_F02: antibody binding hIL-6R in the presence of kynurenine; heavy chain SEQ ID NO: 32, light chain SEQ ID NO: 33 (antibody, listed as Homo sapiens, V domains shown)
VH: QVQLVQSGAEVKKPGSSVKVSCKASGGTFSSYAISWVRQAPGQGLEWMGGIIPIFGTANYAQKFQGRVTITADESTSTAYMELSSLRSEDTAVYYCARDAPVVARPRGAFDIWGQGTMVTVSS
VL: DIVMTQTPLSSPVTLGQPASISCRSSQSLVHSDGNTYLSWLQQRPGQPPRLLIHEISNRFSGVPDRFSGSGAGTNFTLKISRVEAEDVGVYYCMQATQFPRTFGQGTKVEIK
Regarding B1, the “dissociation from hIL-6R when kynurenine is no more present” value in series [1] is “rapidly dissociating hIL-6R”. In addition, in series [2], the Tm is 82.9 °C. The “effect of kynurenine concentration on the amount of binding to hIL-6R” value in series [3] is “the higher the concentration of kynurenine acting as a switch, the greater the amount of 6RNMSC1-2_F02 binding to hIL-6R”. Moreover, the “kynurenine binding (in words)” value in series [4] (Biacore) is “confirmed once again to bind to kynurenine”. In series [4] (Biacore T200, 15° C., 5% DMSO), this molecule displayed a Kd of 239 µM, a ka for kynurenine of 709 M⁻¹ s⁻¹ and a kd for kynurenine of 0.17 L/s. The “absorbance under condition 2 or 3 as compared to condition 1 (kynurenine-specific binding to biotin-labeled hIL-6R)” value in series [5] is “markedly low”.

These data come from US20210180049A1 (CHUGAI SEIYAKU KABUSHIKI KAISHA, priority 2013, published 2021).
